Results taken from patent US20240352130A1 (CHILDREN S HOSPITAL OF PHILADELPHIA, published 2024).
Where two headings read alike, the source gives them in different places.

Experiments:
[1] = molecular target: T1, … HLA-A*24:02 complex (human); assay: bead-based binding, scFv on streptavidin beads, fluorescent pMHC
T1 construct: also called Unrelated peptide 2

[2] = molecular target: T2, … HLA-A*24:02 complex (human); assay: as above
T2 construct: also called Unrelated peptide 1

[3] = molecular target: T3, … HLA-A*24:02 complex (human); assay: as above
T3 construct: also called Unrelated peptide 4

[4] = molecular target: T4, … HLA-A*24:02 complex (human); assay: as above
T4 construct: also called Unrelated peptide 3

[5] = molecular target: T5, PHOX2B (43-51) A*24:02 MHC complex (human); assay: BLI (BLItz), biotinylated scFv on streptavidin sensor, soluble pMHC 200 nM
T5 construct: also called PHOX2B (43-51) complex; PHOX2B target pMHC
Protocol: (§1) Binding kinetics. Affinity measurements were performed using a BLItz™ system (ForteBio, USA) and analyzed using the BLItz Pro™ software.

[6] = molecular target: T1, … HLA-A*24:02 complex; assay: bead-based binding, scFv on streptavidin beads, fluorescent pMHC; remark: listed apart in the source
[7] = molecular target: T2, … HLA-A*24:02 complex; assay: as above; remark: listed apart in the source
[8] = molecular target: T3, … HLA-A*24:02 complex; assay: as above; remark: listed apart in the source
[9] = molecular target: T4, … HLA-A*24:02 complex; assay: as above; remark: listed apart in the source
[10] = molecular target: T5, PHOX2B (43-51) A*24:02 MHC complex; assay: BLI (BLItz), biotinylated scFv on streptavidin sensor, soluble pMHC 200 nM; remark: listed apart in the source
Protocol: as §1

[11] = molecular target: T5, PHOX2B (43-51) A*24:02 MHC complex; assay: as above; remark: listed apart in the source
Protocol: as §1

[12] = molecular target: T1, … HLA-A*24:02 complex; assay: bead-based binding, scFv on streptavidin beads, fluorescent pMHC; remark: listed apart in the source
[13] = molecular target: T2, … HLA-A*24:02 complex; assay: as above; remark: listed apart in the source
[14] = molecular target: T3, … HLA-A*24:02 complex; assay: as above; remark: listed apart in the source
[15] = molecular target: T4, … HLA-A*24:02 complex; assay: as above; remark: listed apart in the source
[16] = molecular target: T5, PHOX2B (43-51) A*24:02 MHC complex; assay: BLI (BLItz), biotinylated scFv on streptavidin sensor, soluble pMHC 200 nM; remark: listed apart in the source
Protocol: as §1

[17] = molecular target: T5, PHOX2B (43-51) A*24:02 MHC complex; assay: BLI (BLItz), biotinylated scFv on a streptavidin sensor, soluble pMHC in solution
Protocol: as §1

[18] = molecular target: T1, … HLA-A*24:02 complex; assay: bead-based steady-state binding assay (FIG. 3A)
Protocol: (§2) Steady-state binding assay. An equilibrium binding assay to target pMHCs was also established using MyOne Streptavidin C1 Dynabeads. Briefly, 50 micrograms of Streptavidin C1 Dynabeads were incubated with excess biotinylated scFv before being blocked with free biotin and washed in PBS. […] Binding was normalized to beads without scFv and with unrelated control MHC complex.

[19] = molecular target: T2, … HLA-A*24:02 complex; assay: bead-based steady-state binding assay (FIG. 3A)
Protocol: as §2

[20] = molecular target: T3, … HLA-A*24:02 complex; assay: bead-based steady-state binding assay (FIG. 3A)
Protocol: as §2

[21] = molecular target: T4, … HLA-A*24:02 complex; assay: bead-based steady-state binding assay (FIG. 3A)
Protocol: as §2

B1: Clone 1113 (RU-201-1113) scFv (scFv)
scFv: SRNGGDGQSVLTQPPSVSAAPGQKVTISCSGSSSNIGNNYVSWYQQLPGTAPKLLIYDNNKRPSGIPDRFSGSKSGTSATLGITGLQTGDEADYYCGTWDHMGRNTVVFGTGTKVTVSSQTGGSGGGGSGGGGSGGGGSEVQLLESGGGLVQPGGSLRLSCAASGFTFSDYAMSWVRQAPGKGLEWVSAISGTGGSTYYADSVKGRFTISRDNSKNTLYLQMNSLRAEDTAVYYCAKEFSVVNSAAFDIWGQGTMVTVSSS
binding result [1]: no binding (tested: 3.5 nM)
binding result [2]: no binding (tested: 3.5 nM)
binding result [3]: no binding (tested: 3.5 nM)
binding result [4]: no binding (tested: 3.5 nM)
Kd [5]: 9 nM

B2: Clone 9 (RU-201-9) scFv (scFv)
scFv: SRNGGDGQSVLTQPPSVSVSPGQTASITCSGDSLGYKYACWYQQKPGQSPVLVIYQDSKRPSGIPERFSGSNSGNTATLTISGTQAMDEADYYCQAWDSLGVNTVVFGTGTKVTVSSQTGGSGGGGSGGGGSGGGGSEVQLLESGGGLVQPGGSLRLSCAASGFTFNYYAMSWVRQAPGKGLEWVSAISGYGGSTYYADSVKGRFTISRDNSKNTLYLQMNSLRAEDTAVYYCAKASEAYSAFDIWGQGTMVTVSSS
binding result [6]: no binding (tested: 3.5 nM)
binding result [7]: no binding (tested: 3.5 nM)
binding result [8]: no binding (tested: 3.5 nM)
binding result [9]: no binding (tested: 3.5 nM)
Kd [10]: 100 nM

B3: Clone 1114 (RU201-1114) scFv (scFv)
scFv: SRNGGDGQSVLTQPPSVSVSPGQTASITCSGDKLGDKYACWYQQKPGQSPVLVIYQDSKRPSGIPERFSGSNSGNTATLTISGTQAMDEADYYCQAWDSIGNMTVVFGTGTKVTVSSQTGGSGGGGSGGGGSGGGGSEVQLLESGGGLVQPGGSLRLSCAASGFTFDYYAMSWVRQAPGKGLEWVSAISGYGGSTYYADSVKGRFTISRDNSKNTLYLQMNSLRAEDTAVYYCAKASEYTNAFDIWGQGIMVTVSSS
Kd [11]: 270 nM
binding result [12]: no binding (tested: 3.5 nM)
binding result [13]: no binding (tested: 3.5 nM)
binding result [14]: no binding (tested: 3.5 nM)
binding result [15]: no binding (tested: 3.5 nM)

B4: Clone 10 (RU141-10) scFv (scFv)
scFv: SRNGGDGQSVLTQPPSVSVSPGQTASITCSGDSLGNKYACWYQQKPGQSPVLVIYQDSKRPSGIPERFSGSNSGNTATLTISGTQAMDEADYYCQAWDSSRGYTVVFGTGTKVTVSSQTGGSGGGGSGGGGSGGGGSEVQLLESGGGLVQPGGSLRLSCAASGFTFDSYAMSWVRQAPGKGLEWVSAISGYGGSTYYADSVKGRFTISRDNSKNTLYLQMNSLRAEDTAVYYCAKYTYFLDAFDIWGQGTMVTVSSS
Kd [16]: 10 nM
koff [17]: 0.00076 s⁻¹
binding result [18]: no binding (tested: 3.5 nM pMHC)
binding result [19]: no binding (tested: 3.5 nM pMHC)
binding result [20]: no binding (tested: 3.5 nM pMHC)
binding result [21]: no binding (tested: 3.5 nM pMHC)
